Paper PMC11551957 (ACS Applied Materials & Interfaces, 2024)

Biological target: T1, MPER-TM(654-709) polypeptide (HIV-1, UniProt P04578)
T1 construct: also called MPER-TMD polypeptide; MPER-TMD construct
Assay: flow cytometry on cells; stable HEK293T cells expressing the antigen; 10^6 cells; Fab-mVenus variants at 2 μg/mL, 30 min, RT, FACS buffer (PBS, 0.1% FBS); mVenus fluorescence read; Env cells with or without preincubation with Ig-mD1.22 (20 μg/mL, 30 min)
Settings: one partner purified

B1: 10E8 Fab-mVenus S65C conjugated with Fus4 (Fab, V domains shown)
VH: EVQLVESGGGLVKPGGSLRLSCSASGFDFDNAWMTWVRQPPGKGLEWVGRITGPGEGWSVDYAAPVEGRFTISRLNSINFLYLEMNNLRMEDSGLYFCARTGKYYDFWSGYPPGEEYFQDWGRGTLVTVSS
VL: SYELTQETGVSVALGRTVTITCRGDSLRSHYASWYQKKPGQAPILLFYGKNNRPSGVPDRFSGCASGNRASLTISGAQAEDDAEYYCSSRDKSGSRLSVFGGGTKLTVL
binding result: binds

B2: 10E8 Fab-mVenus S65C conjugated with Lin3 (Fab, V domains shown)
VH: EVQLVESGGGLVKPGGSLRLSCSASGFDFDNAWMTWVRQPPGKGLEWVGRITGPGEGWSVDYAAPVEGRFTISRLNSINFLYLEMNNLRMEDSGLYFCARTGKYYDFWSGYPPGEEYFQDWGRGTLVTVSS
VL: SYELTQETGVSVALGRTVTITCRGDSLRSHYASWYQKKPGQAPILLFYGKNNRPSGVPDRFSGCASGNRASLTISGAQAEDDAEYYCSSRDKSGSRLSVFGGGTKLTVL
binding result: binds
